From the DeepSol protein solubility set

Experiment: soluble on expression in E. coli; label from the status in PepcDB or PDB records

Sequence | soluble on expression in E. coli
MGSDKIHHHHHHMPNVNLDALIPREDFEVIENNSRASSFNQNVSVKDLEKGEFFYAGLRKPDFQRETSDWTDEQLCEFIQSFIDGDLIPAVILWNSGPYNFVIDGAHRLGALISWINDDYGDGHISQKFFNNEIDDEQKDIANKTRERIKNTVKPYSDYKKVILDSSDCDRGILEKALSLGRTSIQLQWVTGGAEKAELSFFKINQKASKINDTEIELLKSRRKAFAIASRAIIRAGTGHQYWSKFDNDVMQNIETMAKEIHSLIFLPKVSGAVRTLDLPLVKKHNSPQTNSFIFDLVKKCNNVPVNTIKIDDDDNGKLTVEYLKNVRKFLRRINSSHPSSLGLHPLVYFYNKRGNHIYSAILAWVDTIVTIEKTKVSLSSFLFIRSDLEKFLIKYKHFISGVNAKYGSGVKSYKHILKINSIIINQLQKRESEKYIVDSILNEYGFLSESDDVNVTSARFSTDIKSQIYIQETLPKTSTCSHCHGFIHQNSISFDHIVRKQDGGKGNVGNGALMHPYCNTSEKN | not soluble
MSQTNESFAALFEESIARSNMKAGEVISAEVVRIDHNFVVVNAGLKSEAFVPVEEFLNDQGELEVQVGDYVSVAIDALENGYGDTILSRDKAKRLASWLNLEKALESGEIISGTVTGKVKGGLTVMVNGIRAFLPGSLVDVRPIKDTTPYEGKTLEFKVIKLDRKRNNVVLSRRAVVEATLGEERQKLMETLKEGAIVNGIVKNITDYGAFVDLGGIDGLLHITDLAWRRVRHPSEVLSVGQEITAKILKFDQEKNRVSLGVKQLGEDPWVGISRRYPQGTRLFGKVTNLTDYGAFVEIEAGIEGLVHVSEMDWTNKNVAPSKVVQLGDEVEVMVLDIDEDKRRISLGMKQCKANPWDDFARNHKKGDKLAGQIKSITDFGVFIGLPGGIDGLVHLSDLSWQETGEEAVRKYKKGDEVEAVVLAIDVEKERISLGIKQLSGDPFNNFISANDKGSIVSVTIKTVDPKGAVVQLADDVEGYLRASEISSDRVEDARNVLKEGETMTAMIVNIDRKSRNINVSIKAKDSADQQEAMQKFAQDTGTAGTTNLGALLKAKLNETNQLEHHHHHH | soluble
MRRVEKVIIVEGRSDKQKVAAVLNEPVVIVCTNGTISDARLEELADELEGYDVYLLADADEAGEKLRRQFRRMFPEAEHLYIDRAYREVAAAPIWHLAQVLLRARFDVRIESLMRGRGE | soluble
MFTHLDENQQPRMVDISQKVAGDRRAVAQCIVQLPKAIKDYLTGQEIFLKKGPVIQTAIIAGTMAVKKTADLIPFCHTLPIHGCKFDINIVYQKRDYLEIFLQCAVNTNYKTGVEMEALCGVSVAALTIYDMCKSISSEIIIKNTKLIEKTGGKADVSQTPLYGLVLTGGKSRRMGKDKALINYQGQPHGQYIYDLLAKYCEQVFLSARPSQWQGTPLENLPTLVDRGESVGPMSGILTALQSYPGVNWLIIACDLAYINSTMVEKLIAQARQDLVATCYENADQGFPEALCGFYTPLALQLFTKAQNIGLHCPVKILQMADCQLIKPDNLFDIANINSPEDYGQINLEHHHHHH | not soluble
MSDATLHATDQNPDDFAVQIADQIESFLVAVTEVAKGDEPDSAVPFLLLEVSQLMLAGGRLGAHEDIVPDERYEPDPGPELDVDEIRENLARILDPVDVYSEVFDPYEPRKAPVPARISDDLTDVITDLRHGMVHYKAGRTTEALWWWQFSYFSNWGSTASATLRALQSVVAHVRLNQPLEELDGLDTDQELGEETLESEAGRVMVREIAAPLGLRPVKLEHHHHHH | soluble
MAHHHHHHMEEQESAENINMIKETIFGLPNSVILKIIHNNINLKNYKIRKEAVTTLGRCLSMFILYITDGALEHCEGEKRNTIFVRDILNSLDDSLFLDIYDELKRQIAIQEEIHKKESAKEAKSAAKGDTPSGADNAQGETNQVNKQDDLDILLQALE | soluble
MLCQKCQKRVANVQMTQIINNNKTVIYLCEQCAREEGKFNVISPFSINDFFSGFMGFPYMASAPQQNQDVVCETCGMSYEEFKKVGKLGCSNCYKTYGDRLVPLLRRLHGNIQYNGKFPSRAFGSIKISREIEKLKEQLNIAIKNEEYEKAAILRDQIRNLESNQNNM | not soluble
GSAQLLKSVFVKNVGWATQLTSGAVWVQFNDGSQLVMQAGVSSISYTSPDGQTTRYGENEKLPEYIKQKLQLLSSILLMFSNPTPVFQ | soluble
MEYIKRKKTRKVRVGDIYIGGDAKITVQSMTNTDTRDVEATVNQIKMLEDIGCDIIRVAVVDQEAAEAIKEIKKSIKIPLVADIHFDYRLAISSMENGADKIRLNPGNIGDRERVRKVVEVAKSRQIPIRIGVNSGSLEKNVIEKYGGITPEAMVESALQHVRILEELDFYDIVISLKASSVPMTIAAYRLMSEKTDYPLHIGVTEAGTVFKGTIKSCAGLGCLLAEGIGDTIRVSLTGDPKEEVLVGHELLRALGIEKGGIELVSCPTCGRCQIDLIGIAEKVEERLEGLDKNIKVAIMGCAVNGPGEAKEADIGIAGGKGEVLLFKKGVIVRKIPQERAVEELMEEILRM | soluble
MGSDKIHHHHHHMYFNVYGHAGKPIIVFPSSGGSQNEYGDFGMIEACQSFIDRGVVKFYTPDSLDRESWLAEGKSGHDMALAHEAYDRYIVHELVPLIRYESNWNGMMMATGCSMGAFHTVNFSLRHPDLFDISVALSGVYDARFFTGEFYGDPAVYYNSPIDYLWNQEDSWFLDRYRRNRFIVAVGQGAWEEPHIIDTIRLKEAFEAKSIPAWFDFWGSDVAHDWEWWRVQMPYFLGKLEEEGRI | not soluble
MGSDKIHHHHHHMYIFRSIHEIINTIFVAKGLLVEMFEKRKVLSFRYSDALALLKEDENRLKILIEKEIIHQNGNFVELDARFLDFFELLLEANEEINTATVEENIEYLHELMDYYLKEKIQSRKESYVRNIKITFQKLARVTIRNIINLQHNIDNAFKHEPTYQIKIAKLQNLDKKRINIQRLIDSTEHLILHEERDFFRQATDEELTRILLELRQELQLSAHSLIRAQQDIINYLNQIKNQVILVEKIRKVKYLQDQFELRARSNLSEIMERERSLLLEGNTQASFKLSPSYLASDEVRPIILKVISNQKYREIVRKNEAGAFSEEDLEAQAMYEEVINLDEVVTAFVQSGAEARWKGEPVSDLFSFLLQYHFHREVDEKERTTFFCQIVSLYESQLEIRNEFGLHNQYEYAKIYPL | not soluble
STSTSGLTARISQTLFTSNSFVEEVASILQHWDTGLEASKRRIQDAKEKNSTVLDLQQLELSNEIFNELWPSIREIRNLKYLNLFLNRLTELPSDFGALSTLETLNLACNPLQSVPDSFSDLAMLRELDLGFTSTLCTVPEIFEKMTQLKVLYAGNNRLEKLPESVISLQCLEELHLYGNALNALPENIGNLKSLRLLNVGRNNLSSLPNSIGSLSSLEVLYLYENDLSSLPRSMKDLSKLRVLGLDGNPSLSSLPEHIKEPNAKAVAAYYAEME | soluble
MIGMAEVKLINIWKRFGDVTAVKDLSLEIKDGEFLVLLGPSGCGKTTTLRMIAGLEEPTRGQIYIEDNLVADPEKGVFVPPKERDVAMVFQSYALYPHMTVYDNIAFPLKLRKVPKQEIDKRVREVAEMLGLTELLNRKPRELSGGQRQRVALGRAIIRRPKVFLMDEPLSNLDAKLRVKMRAELKKLQRQLGVTTIYVTHDQVEAMTMGDRIAVMNKGELQQVGTPDEVYYKPVNTFVAGFIGSPPMNFLDATITDDGFLDFGEFKLKLLQDQFEVLEEENMVGKEVIFGIRPEDVHDASFTHIDVPEENTVKATVDIIENLGGEKIVHLRRGNISFTAKFPKESKVREGDEVSVVFDMKKIHIFRKDTEKAIF | soluble
MGSDKIHHHHHHMVKAVVLLSGGLDSATVLAIARQQGYECYALSVSYGQRHGAELAAAKNLARSLGATAHKIIQVDLSTFGGSALIDKEREIPTDGVTPGIPSTYVPARNTIMLSIALAWAEVLGSGDIFIGVNAIDYSGYPDCRPEYIEAFETMANVATKAGIEGTRLAIHAPLMNLSKAEIIKRGGVLGVDYSMTVSCYQADDAGLACGVCDSCRLRRAGFESADVPDVTRYHAGFRQTPAS | not soluble
LPGRFQRSDVERVVTACSAALGLSSACLRALLVMVHATRPSDWRDEQRDAVCFMQQVQVAARLGVTPRALRYQEARLERLGLLRRNVAADGSRGRFGGGDLIQGISFAPLIEAFPSLLRIAEQLEAAERERQVLRRRVSAARRILSQTLTRLAALDKAVPGLTEVLASMPRRYDALDGSELGALLQRVDKAAREALRHLEVQQVSSGVPENSFRPHIQDTTQENPVCSGSSAIERTARKRADSIKPDAAPDGTASCYEKKHGLADRGFKPRYLDTFTPTQLYEAASPDMQMYLDAGRRSDSTLTAHDFIQAAIAILPALGVNASAWDEAADTMGDLPAALCVLVLDANRYRPVNPVWSPGGMLRAMTARARSGGLNLHGSLIALQRRAG | not soluble
MFNLGSMFNLGPSEPVVGKASILLECPAGKAFKFIGENLFLNYPRWSPEVKELEQLTHGPVCLGTIARQVRVDQGHRSESKFRITIYEPDRRVAFAGISDPFRCVYELLDEQNSGSTRLLFKFELLEIQMIMRPFEPMIRTAVQDGAERTVQNIKRLVESEPGALEHHHHHH | soluble
SNAMNHTADNCIFCKIIDGQILCSKVYEDEHVLAFLDISQVTKGHTLVIPKVHKQDIFALTPEIASHIFSVVPKIANAIKAEFNPVGFNLLNNNGEKAGQTVFHFHLHLIPRYGENDGFGAVWKSHQNEYTMENLQNIASTIANSVK | soluble
MKEKKLNLKKHLNTVVTLNSDYLNLLDLMQITNANFPIGTFSHSFGVETYIRKDIVFDGESLIKALLLYMNEQLLHGDLLAIYQIFKLLPKQKINAIWEIDQMINFQGLARETREGQRRIGQQMVKIYNELFNCELLVEYAERIKNKKSYGNPAVAFALLAMHLKIDLKTALYTHLYSTVAALTQNCVRAIPLGQVKGQKIIYQLKHVYFDDIVNKVFTLDFKTDFCKNIPGLEIAQMEHEDTPVRLFMSLEHHHHHH | not soluble
MSLIDRYILAIESSCDETSVAILKNEDQLLSNIIASQVESHKRFGGVVPEVASRHHVEVITLCIQDALQEAGITAGDLSAVAVTYGPGLVGALLVGMAAAKAFAWANHLPLIPVNHMAGHLMAAQSIADLQYPLLALLVSGGHTELVYVAAPGDYRIVGETRDDAVGEAYDKVGRVMGLTYPAGKEIDQLAHQGQDIYDFPRAMIKEDNLEFSFSGLKSAFINLHHNARQKGEQLRLEDLCASFQAAVLDILMVKTKKALAAYPVKTLVIAGGVAANQGLRERLKEDIKDINVVIPPLRLCGDNAGMIAYAAAVEYEKGHFAELDLNAKPSLAFEGLEEGHHHHHH | soluble
MSLRNKLQQAKRIVIKVGTSSLIYPNGNINLKAIDQLAFTLSDLSNQGKEIILVSSGAIGVGLNKLNLSVRPTTIPEQQAVAAVGQAELMNIYNQRFSTYSQQMAQVLLTRDVIEYPESRNNVTNTFEQLLKMNIIPIVNENDTVAIEELDHLTKFGDNDQLSAIVCQIVQADLLVMLSDIDGFFSDNPTVNKEATLFSEINEINEDLFQLAGGKGSRFGTGGMSSKLKAAERVLANQQAMILANGKQPKIIFEILEGKDIGTLFIKGGHESDEGHHHHHH | soluble
GPGSMDEFVYNRCSLNPIHWVLMLKGCLVDLFFSVRPINFSYSRVGMTNLAGERDQAACLREIRRAVRIIEGRKRTVATGTNKDSFQDMDSRCHTPERPLRLHLVLFGFSRGATTTFYTAMKLPPELATYVSLVVVEAAFDTLHNVIESSCWFPSFVLWFFRTFCDYSGEDAYKYDRNQIHLRCPIAFVMSVKDTRVPNELTQRLIDNVKADCPQIPAVEVLQLKHSRHPLMAVGNREDQDAYVAFMEGLYDRYCN | not soluble
DKDVLEVKLDKKEYKAGETATALIQSPYADAELYFAVIKDKPIYQQITKVQGSAPQIQFRVTPEMLPNAAVEAVLVRQGKPINQVEVGSLDNLVKIGFTPFKVNLEDKYLKLQVKPAQASLEPGAEETIQLEVKDNQGNPTKGQLTVMVVNEAVLQLSGY | not soluble
